# Molecular target: Shiga toxin 2f (Stx2f) holotoxin (Escherichia coli)
binder,measurement,value
"monoclonal antibody Stx2f-1 (antibody, V domains shown) VH: QVQLQQSGPEVVRPGVSVKISCKGSGYTFTDYAIHWVKQSHAKSLEWIGFISTYNGNPNYNKEFKGKATVTVDKSSSTAYLELARLTSEDSAIYFCARDFYGSSSWFAYWGQGTLVTVSA VL: DIVLTQTPASLAVSLGQRATISCRASESVDSYGDDFMHWYQQKPGQPPKLLIYRVSNLESGIPVRFSGSGSRTDFTLTINPVEADDDATYYCQQSNENPYTFGGGTKLEIK",Kd,0.516 nM
